*1 amine or outer side, *2 acyl side, *3 side chain or, on linkers, in order; H or OH if unused. Bridges are numbered along the chain shown (N, C = ends). Primed or numbered codes have the meaning given here. [ ]: non-standard residue; d: D form. The star is where a group is joined. DOTA = O=C(O)CN1CCN(CC(=O)O)CCN(CC(=O)*)CCN(CC(=O)O)CC1; TATA = O=C(CC[*:1])N1CN(C(=O)CC[*:2])CN(C(=O)CC[*:3])C1; NOTA = O=C(O)CN1CCN(CC(=O)O)CCN(CC(=O)*)CC1; Hyp = O=C(O)[C@@H]1C[C@@H](O)CN1; hArg = N=C(N)NCCCC[C@H](N)C(=O)O; PEG2′ = not defined here; Sar = CNCC(=O)O

What all share (details): both partners purified
The target in test [1] is T1, His-tagged human EphA2 (human, UniProt P29317 24-537).
T1 construct: Human EphA2 (Ephrin receptor A2), recombinant, His-tagged, printed as 56.9 kDa; also called hEphA2; recombinant human EphA2; source: bought: R&D systems, catalog # 3035-A2
The test can be described thus: SPR; Biacore T200, CM5 chip, 25 °C; His-tagged EphA2 captured (~750 RU) on amine-coupled anti-His antibody; peptide as analyte in HBS-P (10 mM HEPES pH 7.4, 150 mM NaCl, 0.05% P20) + 0.1% DMSO, 50 μL/min, contact 120 s, dissociation 600 s; 1:1 kinetics model.
T1 sequence (P29317 24-537): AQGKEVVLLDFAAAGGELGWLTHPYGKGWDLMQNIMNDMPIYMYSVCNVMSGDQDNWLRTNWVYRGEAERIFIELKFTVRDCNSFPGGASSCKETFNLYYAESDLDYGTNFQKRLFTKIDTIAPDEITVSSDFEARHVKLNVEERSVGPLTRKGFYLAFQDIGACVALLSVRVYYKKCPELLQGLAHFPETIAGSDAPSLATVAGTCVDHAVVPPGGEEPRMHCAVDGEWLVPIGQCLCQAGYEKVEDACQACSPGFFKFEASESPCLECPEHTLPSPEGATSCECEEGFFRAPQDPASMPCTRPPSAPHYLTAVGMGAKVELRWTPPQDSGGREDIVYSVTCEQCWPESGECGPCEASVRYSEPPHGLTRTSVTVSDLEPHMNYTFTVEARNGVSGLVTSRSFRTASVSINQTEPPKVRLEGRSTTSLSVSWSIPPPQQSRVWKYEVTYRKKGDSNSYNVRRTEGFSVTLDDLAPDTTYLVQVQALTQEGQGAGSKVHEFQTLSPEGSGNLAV

The target in a further test is T2, His-tagged mouse EphA2 (mouse, UniProt Q03145 26-538).
T2 construct: Mouse EphA2, recombinant, His-tagged, printed as 58 kDa; also called mEphA2; recombinant mouse EphA2; source: bought: SinoBiological, cat.# 50586-M08H
T2 sequence (Q03145 26-538): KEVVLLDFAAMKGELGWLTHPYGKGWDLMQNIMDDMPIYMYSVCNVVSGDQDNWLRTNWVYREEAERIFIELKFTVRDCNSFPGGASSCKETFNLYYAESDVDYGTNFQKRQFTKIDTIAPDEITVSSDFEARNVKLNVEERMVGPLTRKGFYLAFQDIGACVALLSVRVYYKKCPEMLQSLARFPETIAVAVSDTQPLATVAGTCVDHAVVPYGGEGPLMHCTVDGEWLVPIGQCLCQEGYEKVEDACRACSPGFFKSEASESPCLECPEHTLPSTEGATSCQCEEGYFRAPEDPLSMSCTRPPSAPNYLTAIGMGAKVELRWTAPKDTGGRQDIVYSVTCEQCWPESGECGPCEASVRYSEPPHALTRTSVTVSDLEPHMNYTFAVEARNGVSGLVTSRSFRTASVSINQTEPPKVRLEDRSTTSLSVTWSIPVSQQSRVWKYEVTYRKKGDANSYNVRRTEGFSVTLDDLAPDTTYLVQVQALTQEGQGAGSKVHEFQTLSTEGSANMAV
The description is as above.

Test [2] deals with T3, His-tagged human EphA2 (human, UniProt P29317 24-537).
T3 construct: human EphA2 (Ephrin receptor A2), recombinant, 56.9 kDa; also called recombinant human EphA2 protein; hEphA2; source: bought: R&D systems, catalog # 3035-A2
Briefly: SPR; Biacore T200, CM5 chip, 25 °C; His-tagged human EphA2 captured on immobilised anti-His antibody (FC2); AJ210 as analyte, 0.625-80 nM, in HBS-P + 0.1% DMSO, 50 μL/min, contact 120 s, dissociation 600 s; 1:1 kinetics model.
T3 sequence (P29317 24-537): as the sequence (P29317 24-537) above

B1: AJ201 (peptide)
peptide: {NOTA-PEG2′}-GR[Sar][Sar][Sar]GA[hArg]DC[Hyp]LVNPLCLHP[dD]W[hArg]C-NH2
modifications: linker 10-17-24 via TATA; not fully specified; also: hydroxyproline, place not given here
notes: also called non-radioactive AJ201; bicyclic peptide AJ201; source: synthetic peptide, synthesized by CPC Scientific Inc., >90% purity
On to B1, for which the figures for the Kd in the test with His-tagged human EphA2 [1] and in the test with His-tagged mouse EphA2 were 0.2 nM and 0.6 nM, respectively.

B2: AJ210 (peptide)
chain: {DOTA}-A[hArg]DC[Hyp]LVNPLCLHP[dD]W[hArg]C-NH2
modifications: linker 4-11-18 via TATA
SMILES: CC(C)C[C@@H]1NC(=O)[C@@H]2CSCCC(=O)N3CN(CN(C3)C(=O)CCSC[C@H](NC(=O)[C@H](CC(=O)O)NC(=O)[C@H](CCCCNC(=N)N)NC(=O)[C@H](C)NC(=O)CN3CCN(CC(=O)O)CCN(CC(=O)O)CCN(CC(=O)O)CC3)C(=O)N3C[C@H](O)C[C@H]3C(=O)N[C@@H](CC(C)C)C(=O)N[C@@H](C(C)C)C(=O)N[C@@H](CC(N)=O)C(=O)N3CCC[C@H]3C(=O)N[C@@H](CC(C)C)C(=O)N2)C(=O)CCSC[C@@H](C(N)=O)NC(=O)[C@H](CCCCNC(=N)N)NC(=O)[C@H](Cc2c[nH]c3ccccc23)NC(=O)[C@@H](CC(=O)O)NC(=O)[C@@H]2CCCN2C(=O)[C@H](Cc2c[nH]cn2)NC1=O
On to B2, for which, in the test with His-tagged human EphA2 [2], the Kd (commonly the equilibrium constant for the complex coming apart) was 2.4 nM, the koff (usually the first-order rate constant of dissociation) stood at 0.00136 s⁻¹ and the kon (commonly the second-order rate constant of association) turned out to be 561000 M⁻¹ s⁻¹.

Source of the values: publication PMC11984392, “EphA2-targeted alpha-particle theranostics for enhancing PDAC treatment” (Theranostics, 2025).
